Switch fluorescence ratio data for 78 sequences are collected here from the supplement of paper PMC10126150.

This data set deals with ATP. The data set can be described thus: switch fluorescence ratio, 500 uM ATP over buffer (Cy3 cluster intensity, sum of 5 cycles each) (fold (ratio)); higher = stronger signal-on switching upon ATP binding; sequences stand for … in TCGTCGGCAGCGTCAGATGTGTATAAGAGACAGTTTTTTTTTTTTTTTTTTTTTTTTT…TC. Conditions: aptamer strand: ATP DNA aptamer (quencher-CACCTGGGGGAGTATTGCGGAGGAAGG + anchor), 100 nM annealed; ATP concentration: 500 uM. Summed up: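 The fluorescence ratio divides summed target-cycle Cy3 intensity by summed buffer-cycle Cy3 intensity for each cluster and is averaged per switch-domain sequence. Cy3-labelled switching-strand clusters on a modified Illumina MiSeq flow-cell were annealed to 100 nM quencher-labelled ATP aptamer, then imaged in selection buffer and again after 15 min with 500 uM ATP at 22 °C. Five such cycles were run, with NaOH stripping and re-annealing between them, and clusters outside 100-1000 RFU were excluded.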

± gives the standard deviation of the averaged measurements.
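Also: ATP exposure 15 min at 22 °C before imaging.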

As for GAATATAGTT, the switch fluorescence ratio was 0.9947 ± 0.0078. Next, TAATGGTTGA: 1.02 ± 0.029; TTTAAATCTC: 0.963 ± 0.014. The figure for TTCTGTTGGT is 1.02 ± 0.087. Next, GATTTGTGTC: 0.955 ± 0.081. As for TATAACTTAA, the switch fluorescence ratio stood at 1.03 ± 0.026. With TTTTCGGAGT, the switch fluorescence ratio was 1.01 ± 0.037. Next, CGAACCTGGA: 1.37 ± 0.076; TACAGCTGGG: 1.01 ± 0.016. As to TCCTTTTGG, the switch fluorescence ratio turned out to be 0.996 ± 0.044. With TCAATCATAT, the switch fluorescence ratio is 0.982 ± 0.033. Next, GGGACGTGTT: 1.02 ± 0.028; TTTTGCTGTG: 1.01 ± 0.025. Consider CTCTATTGGG, for which the switch fluorescence ratio worked out at 0.993 ± 0.014.

For the sequence TGACTGTTTC, the switch fluorescence ratio was determined as 1.01 ± 0.024. The figure for CGAGGTCAGT is 1.044 ± 0.01; for CGTAATCATC it is 1.13 ± 0.023. With ACAGGTAGGT, the switch fluorescence ratio was 1 ± 0.055. On to AGAGCGTTAG, for which the switch fluorescence ratio came to 1.02 ± 0.051. Next, CAGGGGGGCC: 1.03 ± 0.02. For CAGCCGGGTG, the switch fluorescence ratio came to 1.3412 ± 0.0003. On to AAGTTACGTT, for which the switch fluorescence ratio is 1.04 ± 0.081. The figure for ATGTTGGGTT is 0.982 ± 0.031.

Take ATGTTATGG: the switch fluorescence ratio stood at 1.01 ± 0.011.

For GGGGGGAATC, the switch fluorescence ratio turned out to be 1.01 ± 0.052. On to GGGTAAAGCT, for which the switch fluorescence ratio was 1.14 ± 0.018. Next, TTAGGTGAGT: 1.21 ± 0.3. The figure for TTAAAAGGTC is 1.027 ± 0.0083.

Consider ATGATTACGT, for which the switch fluorescence ratio is 1.01 ± 0.03. The figure for GAGGAAACAG is 1.022 ± 0.0067. In the case of TGGTGGGGTT, the switch fluorescence ratio was 0.984 ± 0.02.

Consider CGCGCGGAAC, for which the switch fluorescence ratio was 0.98 ± 0.019. TAAGCTGGAG: the switch fluorescence ratio came to 1.07 ± 0.14. Take CAAATGGTCT: the switch fluorescence ratio amounted to 1 ± 0.013. As to TTTGGAAAGG, the switch fluorescence ratio was 0.977 ± 0.046. Next, CGGGGGGACA: 0.968 ± 0.041; AACAGTTGAA: 1.0083 ± 0.00099. For ATAATGAGGT, the switch fluorescence ratio stood at 1.01 ± 0.042. In the case of TATATTTAGC, the switch fluorescence ratio amounted to 1 ± 0.033. Consider GAAGGTTCGT, for which the switch fluorescence ratio turned out to be 1 ± 0.034. Next, CTCTACGAGA: 0.983 ± 0.015; ACATTTTGTT: 0.972 ± 0.051.

Consider ACACGTTACA, for which the switch fluorescence ratio is 1.62 ± 0.082. With AGAGAGAGTT, the switch fluorescence ratio was determined as 0.974 ± 0.032. Consider GACGTTTTGG, for which the switch fluorescence ratio is 0.997 ± 0.025.

For the sequence CAGAGTAACA, the switch fluorescence ratio turned out to be 0.973 ± 0.03.

As to TTACATTTTT, the switch fluorescence ratio turned out to be 1.05 ± 0.06. Consider GAGTTTATGT, for which the switch fluorescence ratio came to 1.01 ± 0.022. For ACCATAGGCT, the switch fluorescence ratio stood at 1.01 ± 0.055. GGAACATAG: the switch fluorescence ratio came to 0.9987 ± 0.0023.

As to TACTGGTCCG, the switch fluorescence ratio came to 1.08 ± 0.074. TGCTTGGTTT: the switch fluorescence ratio was determined as 1.02 ± 0.018. The figure for TATTGTACTC is 1.03 ± 0.018. On to TTCGGGGGGC, for which the switch fluorescence ratio worked out at 0.961 ± 0.039.

On to GACGGAGTCG, for which the switch fluorescence ratio amounted to 0.997 ± 0.03.

For TTTTGATGCG, the switch fluorescence ratio is 0.982 ± 0.031. On to CGGGGTCGGA, for which the switch fluorescence ratio was 0.999 ± 0.035. The figure for GCCGTGTTTT is 1.006 ± 0.0018; for TTTTGTCTGC it is 0.98876 ± 0.00074; for TATGAAAGGC it is 0.991 ± 0.053. Regarding AGGAATCCGG, the switch fluorescence ratio is 1.03 ± 0.026. Consider TTTGAGGGCG, for which the switch fluorescence ratio came out at 1.01 ± 0.066. As to TGCTGAAAGA, the switch fluorescence ratio was found to be 1.04 ± 0.028. Next, AAGGTTGAAC: 0.979 ± 0.011; TTCGTTTTTC: 0.956 ± 0.035; AGAAGCCCCT: 0.992 ± 0.031. Next, TAATGGACAA: 1.04 ± 0.017; TTGCATACGT: 1.61 ± 0.76; GATATTGCTA: 0.975 ± 0.03. As to TATTTTGGCG, the switch fluorescence ratio turned out to be 0.986 ± 0.025. The figure for AAGTCTTAAG is 1.04 ± 0.013; for GCGGTAACCA it is 0.992 ± 0.033; for GAAGGTCAGT it is 0.971 ± 0.051. For TCGAAATCGG, the switch fluorescence ratio amounted to 1.03 ± 0.021.

As to CGAGCCTGGT, the switch fluorescence ratio is 1.02 ± 0.035. For the sequence TATCGTCTAC, the switch fluorescence ratio stood at 1.015 ± 0.0033. Consider ATGGTGGAGG, for which the switch fluorescence ratio came out at 1.01 ± 0.024.

For TTGTTTTAGG, the switch fluorescence ratio turned out to be 0.987 ± 0.047.
